Measured values reported in patent US20100222401A1, “COMPOSITIONS AND METHODS FOR TREATING PATHOLOGIC ANGIOGENESIS AND VASCULAR PERMEABILITY” (priority 2008, published 2010).
Several values for one entry are separate records, joined by “and”; a condition that tells them apart may be missing. Equal entries are not always repeated. Entries after “also recorded” stand apart in the source; their conditions may differ.

Columns and labels:
[1] = tested on: neovascular tuft formation; assay: Oxygen-induced retinopathy, SecinH3; assay type: in vivo; details: wild-type mice, intraocular injection, final concentration 21.6 μM, versus DMSO
[2] = tested on: neovascular tuft formation; assay: Laser-induced choroidal neovascularization, SecinH3; assay type: in vivo; details: wild-type mice, intravitreal injection, final concentration 21.6 μM, versus DMSO
[3] = tested on: HMVEC; assay: VEGF induced migration of HMVECs (modified Boyden chamber); assay type: cell-based, human
[4] = tested on: ARF6; assay: VEGF induced ARF6-GTP, HMVEC, SecinH3; assay type: cell-based, human
[5] = tested on: ARF6; assay: ARF6 activation assay (GST-GGA3), endothelial cells on VEGF-165; assay type: cell-based; details: endothelial cells on dishes coated with VEGF-165 and Slit2
[6] = tested on: lung endothelial cells; assay: In vitro permeability assay (Transwell, HRP); assay type: cell-based, mice; details: Robo4^+/+ endothelial cell monolayers, pre-treatment with Slit2
[7] = tested on: dermal permeability; assay: Miles assay / VEGF-induced dermal permeability; assay type: in vivo; details: Robo4^+/+ mice, concomitant intradermal Slit2
[8] = tested on: retinal endothelium; assay: VEGF induced retinal permeability (Evans Blue), Slit2; assay type: in vivo, mice; details: intravitreal co-injection
[9] = tested on: neovascularization of the retina; assay: Retinopathy of prematurity: percent neovascularization of the retina (FIG. 12); assay type: in vivo; details: wildtype mice, Slit versus Mock preparation, N=6, P<0.003
[10] = tested on: choroidal neovascularization; assay: Laser-induced choroidal neovascularization (CNV), Slit2N; assay type: in vivo; details: Robo4^+/+ mice, intravitreal administration
[11] = tested on: ARF6; assay: ARF6 activation assay (GST-GGA3), endothelial cells on fibronectin; assay type: cell-based; details: endothelial cells on fibronectin and Slit2
[12] = tested on: murine lung endothelial cells; assay: bFGF-induced tube formation on matrigel; assay type: cell-based
[13] = tested on: Rac; assay: VEGF-induced Rac activation in HUVEC; assay type: cell-based, human; details: GST-PBD pull down
[14] = tested on: Cdc42; assay: Cdc42-GTP levels, endothelial cells on fibronectin; assay type: cell-based; details: presence of Slit2
[15] = tested on: lung endothelial cells; assay: VEGF-A tube formation assay, murine lung endothelial cells; assay type: cell-based, mice
[16] = tested on: lung endothelial cells; assay: VEGF-A endothelial cell migration assay, murine lung endothelial cells; assay type: cell-based, mice
[17] = tested on: Avian Flu Virus, strain H5N1/Duck/Mn/1525/81; set-up: species or system BALB/c mice; details: mouse, in vivo
[18] = tested on: Rac1; assay: VEGF-A-dependent Rac1 activation, HMVEC; assay type: cell-based, human; details: endothelial cell monolayers (HMVEC)
[19] = tested on: c-Src; assay: VEGF-A-stimulated c-Src phosphorylation, HMVEC; assay type: cell-based, human; details: endothelial cells (HMVEC)
[20] = tested on: endothelial cells; assay: Spreading assay, endothelial cells; assay type: cell-based, human
[21] = tested on: Rac; assay: Rac-GTP levels, endothelial cells on fibronectin; assay type: cell-based; details: endothelial cells on fibronectin and Slit2
[22] = tested on: Rho; assay: Rho-GTP levels, endothelial cells on fibronectin; assay type: cell-based; details: presence of Slit2
[23] = tested on: LPS; assay: Acute lung injury, intratracheal LPS, bronchoalveolar lavage; assay type: in vivo, mice; details: versus Mock preparation
[24] = tested on: VEGFR2; assay: VEGF-A-induced VEGFR2 phosphorylation, HMVEC; assay type: cell-based, human; details: 5 minutes
[25] = tested on: human microvascular endothelial cells; assay: Haptotaxis migration assay, human microvascular endothelial cells; assay type: cell-based; details: transwells coated with fibronectin and Slit2
[26] = tested on: pathological angiogenesis; assay: Oxygen-induced retinopathy (OIR), Slit2N; assay type: in vivo; details: Robo4^+/+ mice, intravitreal administration
[27] = tested on: endothelial cell migration; assay: VEGF-induced endothelial cell migration by Slit constructs (FIG. 23); assay type: cell-based; details: Slit constructs 2 nM, compared with full length Slit2; listed as Slit2-D1
[28] = endothelial cells pre-treated with inhibitor or vehicle (Example 28)

COc1nc(-c2ccc3c(c2)OCO3)n(-c2ccc(NC(=O)CSc3ccccc3)cc2)n1 [SecinH3]
neovascular tuft formation in OIR [1]: inhibited | neovascular tuft formation in CNV [2]: inhibited | VEGF-165 induced cell migration response ([3]; HMVEC, 15 ng/ml VEGF-165, 15 μM Secin-H3, 3 h): attenuated; also recorded: inhibits | VEGF-induced cell migration [3, 28]: prevented | accumulation of ARF6-GTP ([4]; HMVEC, 20 ng/ml VEGF, 50 μM Secin-H3): blocks; also recorded: inhibits | VEGF-induced Arf6 activation [4, 28]: prevented

B1: Slit2N (protein)
chain: QACPAQCSCSGSTVDCHGLALRSVPRNIPRNTERLDLNGNNITRITKTDFAGLRHLRVLQLMENKISTIERGAFQDLKELERLRLNRNHLQLFPELLFLGTAKLYRLDLSENQIQAIPRKAFRGAVDIKNLQLDYNQISCIEDGAFRALRDLEVLTLNNNNITRLSVASFNHMPKLRTFRLHSNNLYCDCHLAWLSDWLRQRPRVGLYTQCMGPSHLRGHNVAEVQKREFVCSGHQSFMAPSCSVLHCPAACTCSNNIVDCRGKGLTEIPTNLPETITEIRLEQNTIKVIPPGAFSPYKKLRRIDLSNNQISELAPDAFQGLRSLNSLVLYGNKITELPKSLFEGLFSLQLLLLNANKINCLRVDAFQDLHNLNLLSLYDNKLQTIAKGTFSPLRAIQTMHLAQNPFICDCHLKWLADYLHTNPIETSGARCTSPRRLANKRIGQIKSKKFRCSAKEQYFIPGTEDYRSKLSGDCFADLACPEKCRCEGTTVDCSNQKLNKIPEHIPQYTAELRLNNNEFTVLEATGIFKKLPQLRKINFSNNKITDIEEGAFEGASGVNEILLTSNRLENVQHKMFKGLESLKTLMLRSNRITCVGNDSFIGLSSVRLLSLYDNQITTVAPGAFDTLHSLSTLNLLANPFNCNCYLAWLGEWLRKKRIVTGNPRCQKPYFLKEIPIQDVAIQDFTCDDGNDDNSCSPLSRCPTECTCLDTVVRCSNKGLKVLPKGIPRDVTELYLDGNQFTLVPKELSNYKHLTLIDLSNNRISTLSNQSFSNMTQLLTLILSYNRLRCIPPRTFDGLKSLRLLSLHGNDISVVPEGAFNDLSALSHLAIGANPLYCDCNMQWLSDWVKSEYKEPGIARCAGPGEMADKLLLTTPSKKFTCQGPVDVNILAKCNPCLSNPCKNDGTCNSDPVDFYRCTCPYGFKGQDCDVPIHACISNPCKHGGTCHLKEGEEDGFWCICADGFEGENCEVNVDDCEDNDCENNSTCVDGINNYTCLCPPEYTGELCEEKLDFCAQDLNPCQHDSKCILTPKGFKCDCTPGYVGEHCDIDFDDCQDNKCKNGAHCTDAVNGYTCICPEGYSGLFCEFSPP
VEGF-165-induced ARF6 activation [5]: prevented | VEGF-A-enhanced accumulation of HRP in the lower chamber [6]: prevented | VEGF-A-stimulated leak of Evans Blue into the dermis [7]: prevented | VEGF-A induced leak of Evans Blue from the retinal blood vessels ([8]; Robo4^+/+ mice): suppressed | VEGF-A induced leak of Evans Blue from the retinal blood vessels ([8]; Robo4^AP/AP mice): refractory | reduction in neovascularization [9]: 63% | angiogenesis in laser-induced choroidal neovascularization [10]: reduced | fibronectin-induced increase in ARF6-GTP [11]: efficiently blocked | bFGF-induced endothelial tube formation [12]: blocked | VEGF-stimulated Rac activation [13]: completely suppressed | Cdc42 activation [14]: significantly reduced | VEGF-A-dependent tube formation ([15]; Robo4^+/+ endothelial cells): inhibited | VEGF-A-dependent tube formation, inhibitory activity ([15]; Robo4^AP/AP endothelial cells): lost | VEGF-A-dependent endothelial cell migration ([16]; Robo4^+/+ endothelial cells): inhibited | VEGF-A-dependent endothelial cell migration, inhibitory activity ([16]; Robo4^AP/AP endothelial cells): lost | mortality [17]: lower mortality | survivability rate [17]: 25% and 50% | Av. Wt. ([17]; iv): 17.4 grams and 18.5 grams and 16.0 grams and 15.4 grams | VEGF-A-dependent Rac1 activation [18]: prevented | VEGF-A-stimulated phosphorylation of c-Src [19]: reduced | cell spreading on fibronectin [20]: markedly inhibited | cellular protrusive activity stimulated by integrin ligation (spreading) ([20]; endothelial cells on 9-11 fragment of fibronectin and Slit2): suppressed | fibronectin-induced increase in Rac-GTP [21]: efficiently blocked | Rho activation [22]: unaltered | concentration of inflammatory cells in bronchoalveolar lavages (BAL) [23]: significantly lower | concentration of protein in bronchoalveolar lavages (BAL) [23]: significantly lower | concentration of inflammatory cells in bronchoalveolar lavages (BAL) ([23]; listed as Slit protein): significantly reduced | concentration of protein in bronchoalveolar lavages (BAL) ([23]; listed as Slit protein): significantly reduced | VEGF-A-induced VEGFR2 phosphorylation [24]: no effect | fibronectin-driven cell migration (haptotaxis) [25]: blocked | angiogenesis in oxygen-induced retinopathy [26]: markedly reduced

B2: SlitD1 (protein)
chain: ILNKVAPQACPAQCSCSGSTVDCHGLALRSVPRNIPRNTERLDLNGNNITRITKTDFAGLRHLRVLQLMENKISTIERGAFQDLKELERLRLNRNHLQLFPELLFLGTAKLYRLDLSENQIQAIPRKAFRGAVDIKNLQLDYNQISCIEDGAFRALRDLEVLTLNNNNITRLSVASFNHMPKLRTFRLHSNNLYCDCHLAWLSDWLRQRPRVGLYTQCMGPSHLRGHNVAEVQKREFVCSGHQS
Inhibition of VEGF mediated endothelial cell migration [27]: active
